According to patent US20190389923A1 (BIORION TECHNOLOGIES B V, published 2019):
Bridge positions count the residues as written; N and C are the ends. Ends that are not written are not given here.

Tests used:
[1] = target: T1, PDGF-beta receptor on mouse 3T3 fibroblasts (mouse, UniProt P05622 32-1098); assay: FITC-BiPPB on mouse 3T3 fibroblasts, fluorescence microscopy
T1 construct: whole, on cells; also called PDGFß-receptor; PDGF-receptor
Experimental: (§1) Cells were seeded in the 8-well glass plates (Lab-Tek, Nunc, Naperville, Ill.) at 30,000 cells/well in the culture medium. […] After 2 h, cells were washed 3 to 4 times with cold PBS and fixed with 4% paraformaldehyde. The nuclei were counterstained with DAPI and mounted in citifluor (anti-fade reagent) and visualized under fluorescent microscope.
(§2) Similar binding experiments were performed in primary freshly isolated human myofibroblasts, mouse 3T3 fibroblasts and human hepatic stellate cells (LX2).

[2] = target: T2, PDGF-beta receptor on primary freshly isolated rat hepatic stellate cells (rat, UniProt Q05030 32-1097); assay: FITC-BiPPB on primary rat hepatic stellate cells, fluorescence microscopy
T2 construct: whole, on cells; also called PDGFß-receptor; PDGF-βR
T2 sequence (Q05030 32-1097): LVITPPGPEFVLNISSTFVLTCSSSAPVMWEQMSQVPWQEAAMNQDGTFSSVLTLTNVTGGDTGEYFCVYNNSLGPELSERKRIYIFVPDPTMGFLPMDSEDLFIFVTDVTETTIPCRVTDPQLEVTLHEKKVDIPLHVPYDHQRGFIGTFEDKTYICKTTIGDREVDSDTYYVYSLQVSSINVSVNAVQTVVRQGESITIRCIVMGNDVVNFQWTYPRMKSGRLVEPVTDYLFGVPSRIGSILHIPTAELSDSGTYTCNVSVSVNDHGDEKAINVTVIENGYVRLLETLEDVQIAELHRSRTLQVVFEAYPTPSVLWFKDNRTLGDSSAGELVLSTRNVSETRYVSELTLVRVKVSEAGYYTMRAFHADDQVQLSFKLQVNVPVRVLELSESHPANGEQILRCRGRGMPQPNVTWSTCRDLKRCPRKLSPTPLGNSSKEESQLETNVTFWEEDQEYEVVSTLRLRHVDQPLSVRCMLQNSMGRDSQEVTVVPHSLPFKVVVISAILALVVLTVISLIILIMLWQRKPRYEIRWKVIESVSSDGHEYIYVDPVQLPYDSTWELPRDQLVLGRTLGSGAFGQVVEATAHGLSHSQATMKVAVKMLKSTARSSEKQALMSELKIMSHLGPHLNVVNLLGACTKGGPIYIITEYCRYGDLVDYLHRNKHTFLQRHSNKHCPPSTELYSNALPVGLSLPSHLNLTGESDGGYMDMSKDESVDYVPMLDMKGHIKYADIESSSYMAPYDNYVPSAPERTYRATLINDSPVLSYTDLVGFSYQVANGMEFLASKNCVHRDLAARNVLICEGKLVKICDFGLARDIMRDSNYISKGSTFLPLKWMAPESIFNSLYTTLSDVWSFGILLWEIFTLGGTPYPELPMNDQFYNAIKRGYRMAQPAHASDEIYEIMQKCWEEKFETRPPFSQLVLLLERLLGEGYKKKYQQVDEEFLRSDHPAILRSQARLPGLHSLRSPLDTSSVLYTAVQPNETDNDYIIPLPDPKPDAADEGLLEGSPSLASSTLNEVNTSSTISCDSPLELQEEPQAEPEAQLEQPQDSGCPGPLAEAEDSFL
Experimental: as §1

[3] = target: T3, PDGF-beta receptor on human cells (primary human myofibroblasts; human hepatic stellate cells LX2) (human, UniProt P09619 33-1106); assay: FITC-BiPPB on primary freshly isolated human myofibroblasts, fluorescence microscopy
T3 construct: whole, on cells; also called PDGFß-receptor; PDGF-βR
T3 sequence (P09619 33-1106): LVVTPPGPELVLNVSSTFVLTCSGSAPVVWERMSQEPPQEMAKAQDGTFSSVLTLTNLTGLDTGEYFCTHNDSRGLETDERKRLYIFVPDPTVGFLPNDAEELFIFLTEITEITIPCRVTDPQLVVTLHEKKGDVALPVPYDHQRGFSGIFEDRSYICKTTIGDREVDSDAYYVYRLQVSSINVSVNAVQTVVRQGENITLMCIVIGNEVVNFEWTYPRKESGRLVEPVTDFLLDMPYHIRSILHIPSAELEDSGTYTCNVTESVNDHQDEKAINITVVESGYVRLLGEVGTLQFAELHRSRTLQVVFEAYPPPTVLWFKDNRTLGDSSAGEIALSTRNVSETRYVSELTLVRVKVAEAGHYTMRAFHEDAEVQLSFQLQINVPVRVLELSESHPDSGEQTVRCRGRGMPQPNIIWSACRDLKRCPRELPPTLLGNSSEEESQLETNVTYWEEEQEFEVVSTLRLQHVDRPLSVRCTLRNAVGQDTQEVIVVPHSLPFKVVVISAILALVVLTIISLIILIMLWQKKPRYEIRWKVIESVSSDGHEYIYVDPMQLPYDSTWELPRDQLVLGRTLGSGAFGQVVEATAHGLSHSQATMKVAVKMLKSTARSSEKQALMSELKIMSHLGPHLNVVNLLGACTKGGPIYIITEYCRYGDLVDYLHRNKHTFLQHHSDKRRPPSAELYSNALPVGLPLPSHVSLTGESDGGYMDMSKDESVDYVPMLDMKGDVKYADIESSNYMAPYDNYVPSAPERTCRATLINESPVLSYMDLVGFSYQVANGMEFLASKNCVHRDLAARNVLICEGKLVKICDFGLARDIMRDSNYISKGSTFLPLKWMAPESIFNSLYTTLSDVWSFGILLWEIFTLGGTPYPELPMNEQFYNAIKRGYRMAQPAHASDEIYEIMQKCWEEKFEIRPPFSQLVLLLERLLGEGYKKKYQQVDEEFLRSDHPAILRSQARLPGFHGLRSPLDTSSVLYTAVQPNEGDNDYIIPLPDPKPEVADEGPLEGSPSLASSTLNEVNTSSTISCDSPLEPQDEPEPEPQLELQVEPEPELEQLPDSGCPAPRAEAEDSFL
Experimental: as §1, §2

Measured: binding result

T1 sequence (P05622 32-1098): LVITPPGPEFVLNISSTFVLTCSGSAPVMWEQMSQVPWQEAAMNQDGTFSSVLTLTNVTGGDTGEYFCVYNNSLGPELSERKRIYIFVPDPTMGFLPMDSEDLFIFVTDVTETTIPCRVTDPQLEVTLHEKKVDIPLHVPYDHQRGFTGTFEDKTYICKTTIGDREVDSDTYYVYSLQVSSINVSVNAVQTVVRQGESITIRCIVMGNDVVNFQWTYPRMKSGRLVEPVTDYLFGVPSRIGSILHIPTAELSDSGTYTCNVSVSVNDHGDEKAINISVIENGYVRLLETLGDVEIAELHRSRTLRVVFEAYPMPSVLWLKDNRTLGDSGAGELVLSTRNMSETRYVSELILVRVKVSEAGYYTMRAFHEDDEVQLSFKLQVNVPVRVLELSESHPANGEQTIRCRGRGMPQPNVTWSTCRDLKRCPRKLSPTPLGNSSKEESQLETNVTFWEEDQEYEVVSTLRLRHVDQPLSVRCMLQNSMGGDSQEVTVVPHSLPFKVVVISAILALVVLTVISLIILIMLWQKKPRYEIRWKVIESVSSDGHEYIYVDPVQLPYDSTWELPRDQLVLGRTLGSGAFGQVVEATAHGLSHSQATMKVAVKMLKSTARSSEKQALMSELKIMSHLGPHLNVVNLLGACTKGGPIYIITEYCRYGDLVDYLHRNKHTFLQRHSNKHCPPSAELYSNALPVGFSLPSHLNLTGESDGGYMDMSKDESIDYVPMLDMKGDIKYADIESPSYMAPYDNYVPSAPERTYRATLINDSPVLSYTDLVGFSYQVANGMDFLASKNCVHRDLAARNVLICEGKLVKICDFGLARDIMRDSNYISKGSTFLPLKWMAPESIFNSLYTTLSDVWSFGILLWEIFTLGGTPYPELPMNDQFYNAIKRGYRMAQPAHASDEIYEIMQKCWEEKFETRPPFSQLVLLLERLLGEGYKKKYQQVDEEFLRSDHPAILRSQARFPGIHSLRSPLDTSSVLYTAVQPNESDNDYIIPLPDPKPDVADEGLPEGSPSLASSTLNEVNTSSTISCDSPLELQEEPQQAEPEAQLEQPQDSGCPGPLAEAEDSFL

B1: BiPPB (bicyclic PDGF-beta-receptor binding peptide), C(1)SRNLIDC(1)GGGDGGC(2)SRNLIDC(2), FITC-labelled (peptide)
peptide: CSRNLIDCGGGDGGCSRNLIDC
modifications: disulfide 1-8, 15-22; also: FITC label (site not given here)
notes: Used on primary rat hepatic stellate cells; also called FITC-coupled BiPPB
binds: all assays above
